Assay results published in the supplement of paper PMC10065799, “High-throughput profiling of sequence recognition by tyrosine kinases and SH2 domains using bacterial peptide display” (eLife, 2023).

Assays:
EPHB2 = EPHB2 (UniProt P29323); experiment: phosphorylation enrichment, bacterial display (enrichment ratio); higher = better substrate or ligand; peptides without Tyr show the background
Hck = Hck (UniProt P08631); experiment: as above
MERTK = MERTK (UniProt Q12866); experiment: as above
c-Src = experiment: as above
c-Abl (mouse) = experiment: as above
Jak2 = Jak2 (UniProt O60674); experiment: as above
Sequence of Jak2 (O60674 whole entry, looked up): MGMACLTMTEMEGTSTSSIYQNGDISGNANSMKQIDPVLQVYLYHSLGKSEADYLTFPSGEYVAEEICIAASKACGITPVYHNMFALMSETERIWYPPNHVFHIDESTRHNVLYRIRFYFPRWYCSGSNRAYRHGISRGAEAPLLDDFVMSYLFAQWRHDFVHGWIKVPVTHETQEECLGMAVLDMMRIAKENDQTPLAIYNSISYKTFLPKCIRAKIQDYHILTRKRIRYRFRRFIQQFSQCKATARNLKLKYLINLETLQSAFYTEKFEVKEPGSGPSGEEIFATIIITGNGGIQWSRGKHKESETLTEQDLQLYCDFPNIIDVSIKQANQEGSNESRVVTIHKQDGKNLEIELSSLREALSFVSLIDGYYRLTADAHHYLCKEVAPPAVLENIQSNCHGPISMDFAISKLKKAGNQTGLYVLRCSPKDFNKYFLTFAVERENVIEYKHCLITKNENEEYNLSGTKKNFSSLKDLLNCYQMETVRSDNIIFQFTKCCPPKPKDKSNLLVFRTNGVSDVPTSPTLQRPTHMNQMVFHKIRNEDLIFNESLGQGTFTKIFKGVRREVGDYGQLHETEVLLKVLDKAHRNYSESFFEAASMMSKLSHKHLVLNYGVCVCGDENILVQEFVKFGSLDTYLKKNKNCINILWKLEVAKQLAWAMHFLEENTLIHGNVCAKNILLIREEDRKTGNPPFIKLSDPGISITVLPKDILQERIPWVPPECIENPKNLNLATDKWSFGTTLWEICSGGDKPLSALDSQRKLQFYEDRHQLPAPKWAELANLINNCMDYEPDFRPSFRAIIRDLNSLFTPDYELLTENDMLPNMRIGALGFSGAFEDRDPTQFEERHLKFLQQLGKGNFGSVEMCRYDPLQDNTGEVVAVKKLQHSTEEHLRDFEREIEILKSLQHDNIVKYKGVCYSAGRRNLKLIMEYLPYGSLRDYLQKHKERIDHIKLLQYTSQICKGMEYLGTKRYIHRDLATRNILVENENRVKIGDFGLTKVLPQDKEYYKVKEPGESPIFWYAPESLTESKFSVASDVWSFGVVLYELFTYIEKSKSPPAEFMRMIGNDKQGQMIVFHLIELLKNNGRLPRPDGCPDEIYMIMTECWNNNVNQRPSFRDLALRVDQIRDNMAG

Fes = Fes (UniProt P07332); experiment: as above
Sequence of Fes (P07332 whole entry, looked up): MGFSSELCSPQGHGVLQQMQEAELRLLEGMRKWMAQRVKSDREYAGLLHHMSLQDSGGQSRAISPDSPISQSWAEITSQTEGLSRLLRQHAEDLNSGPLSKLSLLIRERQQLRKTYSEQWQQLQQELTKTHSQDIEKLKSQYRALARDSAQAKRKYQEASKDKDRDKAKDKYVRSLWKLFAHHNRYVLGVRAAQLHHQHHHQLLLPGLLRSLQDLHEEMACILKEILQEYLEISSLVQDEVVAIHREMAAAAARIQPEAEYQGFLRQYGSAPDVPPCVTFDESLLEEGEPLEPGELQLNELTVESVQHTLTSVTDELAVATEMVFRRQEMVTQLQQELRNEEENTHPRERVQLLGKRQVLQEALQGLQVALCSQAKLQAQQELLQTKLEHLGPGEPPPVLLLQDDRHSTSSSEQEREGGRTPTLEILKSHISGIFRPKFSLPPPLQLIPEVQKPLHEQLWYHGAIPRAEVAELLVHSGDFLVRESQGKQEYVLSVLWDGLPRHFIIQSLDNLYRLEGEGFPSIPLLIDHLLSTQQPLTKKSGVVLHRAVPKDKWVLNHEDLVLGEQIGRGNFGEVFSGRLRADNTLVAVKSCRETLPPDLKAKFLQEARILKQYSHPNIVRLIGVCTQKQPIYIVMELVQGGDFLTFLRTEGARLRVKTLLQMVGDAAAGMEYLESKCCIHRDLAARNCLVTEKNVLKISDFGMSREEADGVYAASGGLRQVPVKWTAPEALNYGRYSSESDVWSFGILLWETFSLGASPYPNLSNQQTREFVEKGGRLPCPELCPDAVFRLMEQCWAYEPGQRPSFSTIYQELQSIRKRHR

Fyn = Fyn (UniProt P06241); experiment: as above
Sequence of Fyn (P06241 whole entry, looked up): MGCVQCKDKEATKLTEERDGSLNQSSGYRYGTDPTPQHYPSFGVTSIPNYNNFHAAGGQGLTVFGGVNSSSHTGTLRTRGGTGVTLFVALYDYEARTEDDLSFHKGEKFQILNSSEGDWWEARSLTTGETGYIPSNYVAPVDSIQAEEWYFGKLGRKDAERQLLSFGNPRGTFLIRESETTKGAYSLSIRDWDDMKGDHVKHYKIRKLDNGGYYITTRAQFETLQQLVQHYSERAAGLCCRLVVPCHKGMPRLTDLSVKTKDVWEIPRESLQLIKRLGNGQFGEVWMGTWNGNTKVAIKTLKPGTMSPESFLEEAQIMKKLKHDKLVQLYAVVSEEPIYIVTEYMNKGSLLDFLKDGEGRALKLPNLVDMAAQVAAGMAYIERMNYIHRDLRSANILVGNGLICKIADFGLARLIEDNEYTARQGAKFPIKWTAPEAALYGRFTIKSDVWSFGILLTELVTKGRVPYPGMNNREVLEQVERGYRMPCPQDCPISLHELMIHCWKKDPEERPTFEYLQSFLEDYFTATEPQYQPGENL

FGFR1 = FGFR1 (UniProt P11362); experiment: as above
Sequence of FGFR1 (P11362 whole entry, looked up): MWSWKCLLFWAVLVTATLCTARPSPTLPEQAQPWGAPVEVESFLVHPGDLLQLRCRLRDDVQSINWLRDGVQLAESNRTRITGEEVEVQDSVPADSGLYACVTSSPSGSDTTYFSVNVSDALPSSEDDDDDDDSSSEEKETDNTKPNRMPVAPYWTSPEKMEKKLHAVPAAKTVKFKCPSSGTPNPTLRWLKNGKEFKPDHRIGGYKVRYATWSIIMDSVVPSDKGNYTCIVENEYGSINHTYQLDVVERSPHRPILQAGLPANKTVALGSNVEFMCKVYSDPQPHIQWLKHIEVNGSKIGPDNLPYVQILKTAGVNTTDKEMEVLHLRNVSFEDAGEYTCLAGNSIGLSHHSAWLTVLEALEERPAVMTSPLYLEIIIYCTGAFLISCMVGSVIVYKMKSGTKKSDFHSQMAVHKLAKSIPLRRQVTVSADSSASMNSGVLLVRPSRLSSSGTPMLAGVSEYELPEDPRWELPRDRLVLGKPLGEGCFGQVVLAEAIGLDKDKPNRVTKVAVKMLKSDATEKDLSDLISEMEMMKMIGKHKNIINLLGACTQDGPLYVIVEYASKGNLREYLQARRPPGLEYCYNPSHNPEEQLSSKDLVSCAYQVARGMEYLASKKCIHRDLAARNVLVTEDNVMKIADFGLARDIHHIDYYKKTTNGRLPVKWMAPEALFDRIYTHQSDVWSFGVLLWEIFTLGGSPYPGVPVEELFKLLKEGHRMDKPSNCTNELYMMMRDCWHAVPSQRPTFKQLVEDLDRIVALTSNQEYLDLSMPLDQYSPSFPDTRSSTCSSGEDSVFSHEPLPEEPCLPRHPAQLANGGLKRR

FGFR3 = FGFR3 (UniProt P22607); experiment: as above
EPHB1 = EPHB1 (UniProt P54762); experiment: as above
Fer (mouse) = experiment: as above
AncSZ = experiment: as above
Grb2 SH2 = Grb2 SH2 (UniProt P62993); experiment: SH2 binding enrichment of the phosphorylated peptide, bacterial display (enrichment ratio); higher = better substrate or ligand; peptides without Tyr show the background
Sequence of Grb2 SH2 (P62993 whole entry, looked up): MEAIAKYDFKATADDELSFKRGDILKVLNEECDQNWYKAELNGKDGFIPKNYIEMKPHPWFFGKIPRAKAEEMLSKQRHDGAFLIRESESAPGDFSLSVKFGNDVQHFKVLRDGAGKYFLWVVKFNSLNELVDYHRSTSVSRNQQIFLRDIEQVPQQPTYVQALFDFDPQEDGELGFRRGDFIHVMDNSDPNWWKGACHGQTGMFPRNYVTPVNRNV

c-Src SH2 = experiment: as above
SHP2-C SH2 = experiment: as above
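Throughout, for SH2 binding enrichment of the phosphorylated peptide, bacterial display: peptide library displayed on the E. coli surface as eCPX fusions, selected cells deep-sequenced, score is each peptide's frequency after selection divided by its frequency in the input.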
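Throughout, for phosphorylation enrichment, bacterial display: 11-residue human phosphosite peptides and single-mutation variants displayed on the E. coli surface, counted by deep sequencing, each peptide's frequency after selection divided by its frequency in the unselected input library; frequency after pTyr selection over input frequency; kinase dosed for 20-30% of maximal phosphorylation in three min.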

Sequence of Hck (P08631 whole entry, looked up): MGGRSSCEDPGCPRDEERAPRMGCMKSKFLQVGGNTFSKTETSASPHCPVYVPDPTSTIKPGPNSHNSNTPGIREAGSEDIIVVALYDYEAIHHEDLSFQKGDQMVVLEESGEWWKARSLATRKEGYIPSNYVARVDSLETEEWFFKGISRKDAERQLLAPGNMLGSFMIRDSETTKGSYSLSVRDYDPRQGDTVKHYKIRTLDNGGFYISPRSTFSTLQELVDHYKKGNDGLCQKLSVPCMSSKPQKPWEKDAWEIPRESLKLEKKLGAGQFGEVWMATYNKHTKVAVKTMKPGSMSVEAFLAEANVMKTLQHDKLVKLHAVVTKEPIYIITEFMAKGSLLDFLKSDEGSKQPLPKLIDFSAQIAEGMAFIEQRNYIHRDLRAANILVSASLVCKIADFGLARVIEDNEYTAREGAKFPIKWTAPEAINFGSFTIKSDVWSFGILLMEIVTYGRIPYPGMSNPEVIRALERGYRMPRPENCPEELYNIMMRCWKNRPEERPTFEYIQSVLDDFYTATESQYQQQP
Sequence of MERTK (Q12866 whole entry, looked up): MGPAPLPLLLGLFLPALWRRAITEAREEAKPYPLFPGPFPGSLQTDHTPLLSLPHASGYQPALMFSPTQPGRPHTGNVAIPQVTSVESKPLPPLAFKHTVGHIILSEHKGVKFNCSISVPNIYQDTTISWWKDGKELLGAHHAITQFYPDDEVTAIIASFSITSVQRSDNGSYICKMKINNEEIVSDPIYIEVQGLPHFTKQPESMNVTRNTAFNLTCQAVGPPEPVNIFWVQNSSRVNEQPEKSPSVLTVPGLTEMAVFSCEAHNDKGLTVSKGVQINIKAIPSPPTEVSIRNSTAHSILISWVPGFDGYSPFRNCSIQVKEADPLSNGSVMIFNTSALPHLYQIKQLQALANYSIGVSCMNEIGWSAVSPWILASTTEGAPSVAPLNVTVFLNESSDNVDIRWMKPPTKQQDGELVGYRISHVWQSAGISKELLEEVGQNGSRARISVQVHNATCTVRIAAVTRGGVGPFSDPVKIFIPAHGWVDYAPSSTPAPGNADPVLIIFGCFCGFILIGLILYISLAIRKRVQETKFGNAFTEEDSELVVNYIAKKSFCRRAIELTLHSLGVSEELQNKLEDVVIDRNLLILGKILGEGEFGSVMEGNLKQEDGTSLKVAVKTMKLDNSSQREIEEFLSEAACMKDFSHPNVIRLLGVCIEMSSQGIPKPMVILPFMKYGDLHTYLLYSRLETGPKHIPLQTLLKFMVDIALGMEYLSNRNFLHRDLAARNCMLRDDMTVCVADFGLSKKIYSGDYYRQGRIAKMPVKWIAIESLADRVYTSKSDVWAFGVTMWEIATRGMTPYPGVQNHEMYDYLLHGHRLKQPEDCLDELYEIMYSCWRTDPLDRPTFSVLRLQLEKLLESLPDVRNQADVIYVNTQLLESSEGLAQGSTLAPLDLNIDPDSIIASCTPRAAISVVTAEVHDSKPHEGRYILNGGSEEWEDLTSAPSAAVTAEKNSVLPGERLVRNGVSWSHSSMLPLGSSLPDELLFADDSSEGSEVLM

Sequence | phosphorylation enrichment (EPHB2) | phosphorylation enrichment (Hck) | phosphorylation enrichment (MERTK) | phosphorylation enrichment (c-Src) | phosphorylation enrichment (c-Abl (mouse)) | phosphorylation enrichment (Jak2) | phosphorylation enrichment (Fes) | phosphorylation enrichment (Fyn) | phosphorylation enrichment (FGFR1) | phosphorylation enrichment (FGFR3) | phosphorylation enrichment (EPHB1) | phosphorylation enrichment (Fer (mouse)) | phosphorylation enrichment (AncSZ) | SH2 binding enrichment (Grb2 SH2) | SH2 binding enrichment (c-Src SH2) | SH2 binding enrichment (SHP2-C SH2)
NREGVYTVSAP [TGFBI_Y537_F540S] | 0.517 | 2.34 | 1.16 | 8.38 | 0.565 | 0.719 | 0.705 | 10.9 | 0.462 | 0.523 | 0.537 | 1.12 | 0.757 | 0.834 | 0.472 | 0.769
NRKGKYFNVER [ANAPC4_Y469] | 0.448 | 0.695 | 0.411 | 0.487 | 0.631 | 0.379 | 0.575 | 0.386 | 0.473 | 0.451 | 0.367 | 0.351 | 0.478 | 0.498 | 0.299 | 0.51
NRNVRYLTLDI [AKR1C2_Y305] | 0.506 | 0.523 | 0.497 | 0.441 | 0.635 | 0.835 | 0.921 | 0.381 | 0.507 | 0.499 | 0.392 | 0.395 | 0.744 | 1.03 | 1.96 | 6.75
NSAFFYKTAEE [CCT6B_Y250_G247A] | 0.472 | 0.496 | 0.439 | 0.38 | 0.593 | 0.927 | 1.23 | 0.524 | 0.452 | 0.696 | 0.521 | 0.47 | 0.962 | 1.19 | 0.565 | 0.923
NSFKYYMSDDI [ATRX_Y204_C200S] | 0.542 | 0.443 | 0.451 | 0.499 | 0.627 | 0.871 | 1.01 | 0.434 | 0.567 | 0.659 | 0.503 | 0.501 | 0.87 | 0.943 | 1.05 | 0.746
NSNAAYEQSHF [LRIF1_Y714] | 0.479 | 0.445 | 0.388 | 0.395 | 0.574 | 0.418 | 0.616 | 0.504 | 0.48 | 0.55 | 0.327 | 0.417 | 0.575 | 0.755 | 0.769 | 0.663
NSRYTYKLEVK [USH2A_Y3747] | 0.689 | 0.478 | 0.396 | 0.42 | 0.795 | 0.982 | 1.29 | 0.437 | 0.427 | 0.687 | 0.618 | 0.505 | 1.12 | 0.962 | 0.644 | 0.911
NYAKMYCNPDA [KNL1_Y489] | 0.608 | 0.518 | 0.498 | 0.626 | 0.989 | 1.17 | 1.1 | 0.463 | 0.561 | 0.667 | 0.673 | 0.59 | 1.12 | 0.795 | 2.11 | 0.531
PAIFTYDEFKK [COL8A2_Y648_T645I_YF] | 0.359 | 1.66 | 0.594 | 3 | 1.03 | 1.12 | 1.11 | 0.952 | 0.374 | 0.501 | 0.398 | 0.304 | 1.47 | 0.829 | 0.509 | 0.888
PATFTYDEFKK [COL8A2_Y648_YF] | 1.24 | 2.06 | 0.677 | 1.68 | 0.864 | 1.3 | 1.43 | 1.9 | 0.77 | 1.12 | 1.38 | 1.68 | 1.49 | 1.03 | 0.791 | 0.53
PAVGIYNGNIN [CDCP1_Y707_D709G] | 0.652 | 1.55 | 0.574 | 1.64 | 1.08 | 1.15 | 1.15 | 1.49 | 0.396 | 0.884 | 0.605 | 0.588 | 0.67 | 0.696 | 0.44 | 0.708
PEEKVYLSRGD [CRACR2A_Y141_H136P] | 0.573 | 1.1 | 0.735 | 1.01 | 1.35 | 1.22 | 1.77 | 0.88 | 0.706 | 1.29 | 1.06 | 0.778 | 1.44 | 0.804 | 0.457 | 0.529
PEFINYHQHNS [BTK_Y361_L358F] | 0.515 | 0.485 | 0.507 | 1.03 | 0.491 | 0.933 | 0.607 | 0.552 | 0.821 | 0.947 | 0.299 | 0.335 | 0.709 | 0.659 | 0.608 | 0.659
PFSEPYADFGG [APBA1_Y187_YF] | 0.488 | 0.786 | 0.76 | 3.39 | 1.38 | 0.991 | 1.29 | 1.15 | 1 | 0.957 | 0.543 | 0.719 | 1 | 0.862 | 0.868 | 0.659
PFSSPYENSLI [EPOR_Y489_N487S_YF] | 1.15 | 1.21 | 0.891 | 0.674 | 0.705 | 0.941 | 1.42 | 1.34 | 0.604 | 1.3 | 1.24 | 3.51 | 1.4 | 14.1 | 6.34 | 1.03
PFVFFYSFLLK [PTEN_Y178_R173P_YF] | 0.686 | 0.983 | 0.931 | 0.577 | 1.52 | 2.1 | 2.12 | 0.679 | 0.751 | 1.25 | 1.07 | 0.983 | 1.99 | 1.04 | 0.496 | 0.913
PGPPGYCDSSH [COL12A1_Y3043_Q3048H] | 0.514 | 1.58 | 0.84 | 0.727 | 1.21 | 1.16 | 1.62 | 0.46 | 0.512 | 0.941 | 0.724 | 0.542 | 1.09 | 1.08 | 0.498 | 0.671
PGVNYYFRVSA | 0.706 | 0.469 | 0.448 | 0.331 | 0.79 | 1.26 | 1.08 | 0.466 | 0.787 | 1.01 | 0.715 | 0.466 | 1.11 | 0.849 | 0.611 | 1.64
PKEEPYKMQEK [SLC5A3_Y565_Q566K] | 0.403 | 0.415 | 0.467 | 0.607 | 0.969 | 0.892 | 1.21 | 0.386 | 0.565 | 0.587 | 0.544 | 0.612 | 0.885 | 0.766 | 0.541 | 0.624
PKGIRYGQGAG [CSRP3_Y73_G72R] | 0.375 | 0.587 | 0.9 | 0.585 | 0.927 | 0.521 | 0.504 | 0.411 | 0.339 | 0.453 | 0.502 | 0.349 | 0.532 | 0.984 | 0.484 | 0.867
PLCPDYQEPSR [DDR2_Y481_R478C] | 2.01 | 1.01 | 0.854 | 0.61 | 0.896 | 1.23 | 2 | 1.12 | 0.643 | 1.46 | 1.43 | 0.999 | 3.5 | 0.86 | 0.786 | 0.781
PLDGEYFSLQI [TP53_Y327_T329S] | 1.24 | 1.76 | 0.737 | 5.24 | 2.77 | 5.35 | 2.23 | 3.53 | 6.64 | 4.26 | 1.15 | 0.749 | 3.12 | 0.762 | 0.387 | 0.836
PLKFLYPNIDK [STAT1_Y668_YF] | 1.3 | 1.09 | 0.846 | 0.939 | 1.38 | 1.65 | 2.18 | 1.16 | 1.54 | 0.822 | 0.945 | 1.13 | 1.26 | 0.714 | 0.72 | 0.647
PLKYLYPNIDK [STAT1_Y668] | 0.69 | 0.782 | 0.786 | 0.461 | 0.775 | 1 | 0.896 | 0.564 | 0.41 | 0.614 | 0.638 | 0.614 | 0.88 | 0.785 | 0.825 | 0.735
PLQKTYNYNML [SLC4A1_Y553_V557M] | 1.03 | 0.578 | 0.52 | 0.52 | 0.816 | 0.649 | 1.01 | 0.39 | 0.589 | 0.678 | 0.76 | 0.395 | 0.878 | 0.78 | 1.37 | 0.623
PLQSEYSSITT [ITGB4_Y1760] | 2.18 | 1.92 | 1.77 | 1.77 | 1.28 | 0.814 | 2.13 | 1.58 | 1.08 | 1.58 | 3.14 | 1.83 | 1.89 | 0.696 | 0.952 | 0.57
PLSGEYFTLQI [TP53_Y327_D324S] | 1.2 | 1.89 | 0.763 | 3.48 | 2.51 | 6.87 | 1.62 | 4.49 | 13.7 | 9.65 | 1.82 | 0.722 | 3.93 | 0.793 | 0.432 | 0.679
PLTRSYIREKV [CYP2C8_Y243_A238P] | 0.484 | 0.312 | 0.406 | 0.448 | 0.305 | 0.591 | 0.413 | 0.474 | 0.341 | 0.48 | 0.276 | 0.262 | 0.582 | 0.923 | 0.351 | 0.904
PMDGEYFTLQI [TP53_Y327_L323M] | 0.753 | 2.79 | 0.604 | 5.21 | 2.02 | 4.86 | 1.95 | 4.35 | 12 | 9.07 | 1.5 | 1.57 | 4.04 | 0.978 | 0.394 | 0.407
